Laboratory results as given in US20130231465A1 (HEMHOLTZ ZENTRUM MUNCHEN DEUTCHES FORSCHUNGSZENTRUM FUR …, published 2013).

Molecular target: CA-XII as used in the enzyme inhibition assay (Homo sapiens (Human), UniProt O43570 25-301, limits assumed)
Assay: cell-based or functional assay

CA-XII as used in the enzyme inhibition assay, sequence (O43570 25-301 limits assumed): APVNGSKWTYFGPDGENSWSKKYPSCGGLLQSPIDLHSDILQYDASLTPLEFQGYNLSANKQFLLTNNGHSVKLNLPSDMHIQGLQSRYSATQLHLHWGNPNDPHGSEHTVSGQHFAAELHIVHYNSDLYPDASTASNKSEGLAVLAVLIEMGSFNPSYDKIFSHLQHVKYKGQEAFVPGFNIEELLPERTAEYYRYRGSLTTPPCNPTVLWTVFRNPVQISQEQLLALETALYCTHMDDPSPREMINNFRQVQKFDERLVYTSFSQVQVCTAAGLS

inhibition of CA-XII (enzyme activity), IC50: 6.14 nM
B1: EXO 6A10 (antibody, V domains shown)
VH: EVKLEESGPGLVQPSETLSLTCTVSGFSLTTYSVSWVRQPSGKGPEWMGRMWYDGDTVYNSALKSRLSISRDTSKNQVFLKMNSLETDETGTYYCTRDFGYFDGSSPFDYWGQGVMVTVSS
VL: DIVMTQTPATLSVTPGESVSLSCRASQGISTSIHWYQQKSNESPRLLIKFASQSISGIPSRFSGSGSGTDFTLSINRVESEDFSVYFCQQTYSLPYTFGAGTKLELK
